B1: library; numbered along this chain (parent)
chain: MEVVDPQQLGMFTEGELMSVGMDTFIHRIDSTEVIYQPRRKRAKLIGKYLMGDLLGEGSYGKVKEVLDSETLCRRAVKILKKKKLRRIPNGEANVKKEIQLLRRLRHKNVIQLVDVLYNEEKQKMYMVMEYCVCGMQEMLDSVPEKRFPVCQAHGYFCQLIDGLEYLHSQGIVHKDIKPGNLLLTTGGTLKISDLGVAEALHPFAADDTCRTSQGSPAFQPPEIANGLDTFSGFKVDIWSAGVTLYNITTGLYPFEGDNIYKLFENIGKGSYAIPGDCGPPLSDLLKGMLEYEPAKRFSIRQIRQHSWFRKKHPPAEAPVPIPPSPDTKDRWRSMTVVPYLEDLHGADEDEDLFDIEDDIIYTQDFTVPGQVPEEEASHNGQRRGLPKAVCMNGTEAAQLSTKSRAEGRAPNPARKACSASSKIRRLSACKQQ

Variants of: B1
Assay: STK11 functional score (HeLa growth suppression), rescaled enrichment; synonymous median = 1, nonsense median = 0 (normalised score)
Conditions: with HeLa; variant type: missense
Description: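 Deep mutational scan (TileSeq/POPCode codon randomisation) of full-length codon-optimised STK11 cDNA integrated at a Bxb1 landing pad (AAVS1) in HeLa cells. Restoring functional STK11 suppresses HeLa proliferation. Variant frequencies were measured by NGS before and after about two weeks of growth. The error-corrected enrichment log-ratio was rescaled so that synonymous median = 1 and nonsense median = 0, scores above 1 were compressed, and codon-level and three biological replicate scores were combined; error is the bootstrapped standard error. Scale: synonymous median = 1, nonsense median = 0; below 0.5 = damaging.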

STK11 functional score of substitutions, site by site:
M51: V 0.725, T 1.21, Q 1.66, L 0.806, W 0.189, A 1.45, K 1.32, Y 1.62, H 1.68, P 1.66, I 1.16, G 1.1, R 1.16, S 0.844
R40: L 0.804, M 1.28, T 1.68, H 1.09, W 1.24, P 1.17, K 1, V 1.64, S 0.887, I 1.63
D53: R 1.58, A 1.07, P 1.52, H 1.23, G 0.726, V 0.606, Y 1.38, S 1.51, M 0.483, C 1.1, L 0.555, W 0.204, E 0.779
L54: S 1.2, H 1.15, Y 1.47, W 0.575, A 0.975, K 1.61, F 0.99, V 0.645, R 0.812, N 1.64, D 1.14, M 1.1, G 1.22, I 0.71, P 1.21, T 1.47
K44: R 1.12, D 0.859, N 1.08, I 1.16, G 0.448, C 1.12, F 1.34, A 1.57, Y 1.46, W 1.3, Q 1.24, L 1.36, T 0.843, S 1.4, M 0.633, V 0.967
L45: V 0.939, N 0.985, Y 0.913, G 1.25, R 1.18, I 0.969, W 1.65, K 1.53, S 1.36, C 1.08, A 0.863, T 1.27, M 1.25, D 1.34, F 1.1
